According to patent publication US20150147342A1 (published 2015):
Numbering of substitutions follows the chain as printed.

B1: H1H693P (antibody, V domains shown)
VH: EVQLVESGGGLVQPGESLRLSCAASGFTFSSYAMSWVRQGPGKGLEWVSSISGSGGTTYYADSVEGRFTISRDNSKNTLYLHMNSLRAEDTAVYYCAKDFLDYSTYLAFDLWGQGTMVTVSS
VL: DIQMTQSPSSVSASVGDRVTITCRASQGISSWLAWYQQKPGKAPKLLIYAASSLQSGVPSRFSGSGSGTDFTLTISSLQPEDFATYYCQQANSFPRTFGQGTKVEIK
B2: H1H696P (antibody, V domains shown)
VH: QVQLVESGGGLVKPGGSLRLSCAASGFTFSDYYMSWIRQAPGKGLEWVSYISYTGRTIYYADSVKGRFTISRDNAKNSLYLQMNSLRAEDTAVYYCARDTDYGDFFDYWGQGTLVTVSS
VL: B1 VL with V11L, S31N, W32Y, Y36F, L46S, R61K, A91Y, F94Y, R96L, Q100G
B3: H1H695P (antibody, V domains shown)
VH: QVQLVESGGGVVQPGRSLRLSCAASGFTFSSYGMHWVRQAPGKGLEWVAVMWYDETNKYYADSVKGRFTISRDNSKNTLYLQMNSLRAEDTAVYYCARYSGYEDYYHGMDVWGQGTTVTVS
VL: EIVMTQSPATPSVSPGERATLSCRASQSISSNLAWYQQKPGQAPRLLIYGASTRATGIPARFSGSGSGTEFTLTISSLQSEDFAVYYCQHYNNWITFGQGTRLEIK
B4: H1H685P (antibody, V domains shown)
VH: EVQLVESGGGLVQPGGSLRLSCAASGFTFSSYDIHWVRQATGKGLEWVSAIGPAGDTYYPGSVKGRFTISRENAKNSLYLQMNSLRAGDTAVYYCARGLITFGGLIAPFDYWGQGTLVTVSS
VL: EIVLTQSPGTLSLSPGERATLSCRASQSVSSTYLAWYQQKPGQAPRLLIYGASSRATGIPDRFSGSGSGTDFTLTISRLEPEDFAVYYCQHYDNSQTFGQGTKVEIK
notes: Fully human antibody, human IgG1; also called mAb1
B5: H1M724N (antibody, V domains shown)
VH: QVQLVESGGGVVQPGRSLRLSCAASGFTLSNYGMHWVRQAPGKGLEWVAVIWHDGSNTYYADSVKGRFTISRDNSKNTLYLQMNSLRAEDTAVYYCTREGLDFWSGYYPNWFDPWGQGTLVTVSS
VL: DIQMTQSPSSLSASVGDRVTITCRASQGIRNDLGWYQQKPGKAPKRLIYAASNLQGGVPSRFSGSGSGTEFTLTISSLQPEDFAAYYCLQHNIYPLTFGGGTKVEIK
B6: H1M732N (antibody, V domains shown)
VH: EVQLVESGGGLVRPGGSLRLSCAASGFTFTNAWMSWVRQAPGKGLEWIGQIKSKTDGGTIDYAAPVKGRFTVSRDDSENTLFLQMNSLKTEDTAVYYCAGNWNYVDFDYWGQGTLVTVSS
VL: B5 VL with G28D, N53S, A85T, I93S, L96F, G100P, E105D
B7: H2M743N (antibody, V domains shown)
VH: EVQLLESGGGLVQPGGSLRLSCAASGFTFRKYAMSWVRQAPGKGLEWVSVISVSGGNTYYADSVKGRFTISRDNSKNTLYLQLNSLRAEDTAVYYCAKDLTDIVLMVYVDYWGQGTLVTVSS
VL: B1 VL with G28D, S30D, S31R, S77T, F94L, R96F, Q100G
B8: H2M750N (antibody, V domains shown)
VH: QVKLVESGGGVVQPGRSLRVSCAASGFTFSSYGMHWVRQAPGKGLEWLAIIWYDGDNKYYSDSVKGRFTISRDNSKNTLYLQMNSLRAEDTAEYYCVRDASIASRFLDYWGQGTLVTVSS
VL: DIQMTQSPSSLSASIGDRVTITCRATQDINNYLAWFQQKPGKAPKSLIYATSNLQSGVPSKFSGSGSGTDYTLTISSLQPEDFSTYYCQQYHSYPLTFGGGTKVEIK
B9: H1M728N (antibody, V domains shown)
VH: EVQLVESGGDLVQPGGSLRLSCTASGFTFSKYWMTWVRQAPGRGLEWVANIKEDGNEKYFLDSVKGRFTISRDNAKDLLFLQMNSLRGEDTAVYYCVRDRGIEVAGPFDYWGQGTLVTVSS
VL: DIQMTQSPSTLSASVGDRVTVTCRASQTIINWLAWYQQKPGKAPKLLISKASSLESGVPSRFSGSGSGTEFTLTISSLQPDDFATYYCQQYNRYWTFGQGTMVEIK
B10: H2M730N (antibody, V domains shown)
VH: EVQLVESGGGLVQPGGSLRLSCAASGFAFRSYWMTWVRQAPGKGLEWVANIQQDGNDKYYVDSVKGRFTISRDNAKNSLYLQMNSLRAEDTAVYYCARDTGIAEAGPFDYWGQGTLVTVSS
VL: B9 VL with T20S, V21I, N31S, K45R, S49Y, S76N, M102K
B11: H2M742N (antibody, V domains shown)
VH: DVQLLESGGDLVQPGGSLRLSCEASGFTFRNYVMIWVRQAPGKGLEWVSGISNSGGTTHYTDSVKGRFTISRDNSKNTLYLQINSLRAEDTAVYYCAKGYLDTSLIEGNWFDPWGQGTLVTVSS
VL: NIVMTQSPLSLPVTPGEPASISCRSSQSLLHSNGFNYLNWFLQKPGQSPQLLIYLGSNRASGVPDKFSGSGSGTDFTLNINRVEAEDVGIYFCMQTLQTPLTFGGGTKVEIK

target: T1, Dimeric fibrinogen-like domain of monkey (Macca fascicularis) Ang-2 conjugated to human IgG1 (monkey (Macca fascicularis)); test: SPR, hIgG1 antibody captured, room temp
T1 construct: also called Dimeric Monkey Ang-2FD; Monkey Ang-2FD-hFc
Protocol: (§1) Antibody was captured on a goat anti-mouse IgG polyclonal antibody surface, a goat anti-human κ polyclonal antibody (Southern Biotech, Birmingham, Ala.) surface or a goat anti-human IgG polyclonal antibody (Jackson Immuno Research Lab, West Grove, Pa.) surface created through direct amine coupling to a BIACORE™ CM5 sensor chip to form a captured antibody surface. […] Antigen-antibody binding and dissociation were monitored in real time at room temperature. Kinetic analysis was performed to calculate KD and half-life of antigen/antibody complex dissociation.
(§2) The above experiment was repeated using selected purified anti-Ang-2 antibodies cloned onto human IgG1.

Binder | Kd [nM] | T1/2 [min]
B1 | 1.17 | 17.6
B2 | 0.354 | 36.6
B3 | 0.44 | 84.1

target: T2, Dimeric fibrinogen-like domain of human Ang-2 conjugated to human IgG1 (human); test: SPR, hIgG1 antibody captured, room temp
T2 construct: also called Dimeric Human Ang-2FD; Human Ang-2FD-hFc
Protocol: as §1, §2

Binder | Kd [nM] | T1/2 [min]
B1 | 0.5 | 37.1
B2 | 0.289 | 38.8
B3 | 0.245 | 147

target: T3, Dimeric fibrinogen-like domain of mouse (Mus musculus) Ang-2 conjugated to human IgG1 (mouse (Mus musculus)); test: SPR, hIgG1 antibody captured, room temp
T3 construct: also called Dimeric Mouse Ang-2FD; Mouse Ang-2FD-hFc
Protocol: as §1, §2

Binder | Kd [nM] | T1/2 [min]
B1 | 0.446 | 63.7
B2 | 0.402 | 37.6
B3 | 0.347 | 124

target: T4, Mouse Ang-2FD-hFc (mouse (Mus musculus)); test: ELISA, 16.67 nM antibody + 8 nM mouse Ang-2FD-hFc, on coated hTie-2-mFc (competitor)
T4 construct: Order of the pieces follows the name; also called Dimeric Mouse Ang-2FD
Protocol: (§3) Tie-2 is a natural receptor for Ang-2. Anti-Ang-2 antibodies were tested for their ability to block Ang-2 binding to human Tie-2 (hTie-2). hTie-2-mFc (a chimeric construct consisting of human Tie-2 conjugated to mouse IgG; SEQ ID NO:525) was coated onto 96-well plates at a concentration of 2 μg/ml and incubated overnight followed by washing four times in wash buffer (PBS with 0.05% Tween-20). The plate was then blocked with PBS (Irvine Scientific, Santa Ana, Calif.) containing 0.5% BSA (Sigma-Aldrich Corp., St. Louis, Mo.) for one hour at room temperature. In a separate plate, purified anti-Ang-2 antibodies, at a starting concentration of 50 nM, were serially diluted by a factor of three across the plate. […] The antibody/Ang-2FD-Fc mixture was then added to the plate containing hTie-2-mFc and incubated for one hour at room temperature.

Binder | Percent Blocking of Ang-2FD Binding to Tie-2 [%]
B4 | 97.1

target: T1, Dimeric fibrinogen-like domain of …; test: SPR, antibody captured, room temp
Protocol: as §1

Binder | Kd [nM] | T1/2 [min]
B5 | 0.73 | 25.7
B6 | 7.33 | 24.1
B7 | 0.234 | 169
B8 | 1.47 | 23
B9 | 1.58 | 69.5
B10 | 0.842 | 36.6
B11 | 6.17 | 28.5

target: T2, Dimeric fibrinogen-like domain of human …; test: SPR, antibody captured, room temp
Protocol: as §1

Binder | Kd [nM] | T1/2 [min]
B5 | 0.179 | 42.7
B6 | 0.484 | 35.5
B7 | 0.154 | 167
B8 | 0.362 | 32.2
B9 | 0.137 | 58.4
B10 | 0.21 | 47
B11 | 0.295 | 38

target: T3, Dimeric fibrinogen-like domain of mouse …; test: SPR, antibody captured, room temp
Protocol: as §1

Binder | Kd [nM] | T1/2 [min]
B5 | 0.694 | 16
B6 | 1.7 | 21.4
B7 | 0.882 | 195
B9 | 5.65 | 9.9
B11 | 0.61 | 30.8

target: T1, Dimeric fibrinogen-like domain of …; test: blocking ELISA, 16.67 nM antibody, coated hTie-2-mFc
Protocol: as §3

Binder | Percent Blocking of Ang-2FD Binding to Tie-2 [%]
B5 | 95.2
B6 | 95.8
B7 | 95.1
B8 | 97.4
B9 | 97.1
B10 | 97.3
B11 | 94.1

target: T2, Dimeric fibrinogen-like domain of human …; test: as above
Protocol: as §3

Binder | Percent Blocking of Ang-2FD Binding to Tie-2 [%]
B5 | 99.5
B6 | 97.7
B7 | 99.6
B8 | 99.4
B9 | 98.5
B10 | 98.9
B11 | 99.6

target: T3, Dimeric fibrinogen-like domain of mouse …; test: as above
Protocol: as §3

Binder | Percent Blocking of Ang-2FD Binding to Tie-2 [%]
B5 | 96.6
B6 | 90.9
B7 | 98.4
B8 | 53.7
B9 | 83.9
B10 | 55
B11 | 98.6
